Measured values from patent publication EP2718312B1 (TLA Targeted Immunotherapies AB, dated 2018).
Blank lines part the entries; values can stand above or below the binder they belong to. Bridges are numbered along the chain shown (N, C = ends). The star is where a group is joined. Biotin = O=C1N[C@H]2[C@H](CS[C@H]2CCCCC(=O)*)N1

How the values were obtained:
[1] = target: T1, hCCR2b (human, UniProt P41597 1-374); assay: cell-based or functional assay
T1 chain: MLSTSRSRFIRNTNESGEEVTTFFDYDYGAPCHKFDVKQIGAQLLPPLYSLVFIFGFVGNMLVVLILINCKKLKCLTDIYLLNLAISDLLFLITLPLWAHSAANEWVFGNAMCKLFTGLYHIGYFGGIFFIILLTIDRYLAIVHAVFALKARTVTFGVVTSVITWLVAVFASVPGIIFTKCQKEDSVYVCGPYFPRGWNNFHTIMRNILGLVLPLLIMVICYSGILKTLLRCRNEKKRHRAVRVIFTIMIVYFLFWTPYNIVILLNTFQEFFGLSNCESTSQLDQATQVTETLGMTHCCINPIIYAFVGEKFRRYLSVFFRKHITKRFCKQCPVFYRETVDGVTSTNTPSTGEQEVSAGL

[2] = target: hCCR5 (human, UniProt P51681 1-352); assay: cell-based or functional assay
Chain of hCCR5 (P51681 whole entry): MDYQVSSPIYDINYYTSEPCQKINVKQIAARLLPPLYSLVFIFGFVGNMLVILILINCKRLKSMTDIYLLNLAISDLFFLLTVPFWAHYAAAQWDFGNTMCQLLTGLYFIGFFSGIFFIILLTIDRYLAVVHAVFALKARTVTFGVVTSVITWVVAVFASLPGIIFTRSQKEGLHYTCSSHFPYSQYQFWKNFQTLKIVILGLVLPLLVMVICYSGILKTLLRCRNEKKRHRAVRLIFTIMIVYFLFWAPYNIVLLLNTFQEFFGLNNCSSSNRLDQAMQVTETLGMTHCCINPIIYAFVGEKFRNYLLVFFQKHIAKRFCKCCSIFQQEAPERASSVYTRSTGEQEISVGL

EC50, Aequorin assay (partial agonist) [1]: 23.5 nM
B1: recombinant native MCP-2 (ligand, human, UniProt P80075 24-99, looked up)
chain: QPDSVSIPITCCFNVINRKIPIQRLESYTRITNIQCPKEAVIFKTKRGKEVCADPKERWVRDSMKHLDQIFQNLKP

EC50, agonist activity in an Aequorin assay [2]: 0.5 nM
B2: biotinRANTES (CCL5) (ligand)
chain: SPYSSDTTPCCFAYIARPLPRAHIKEYFYTSGKCSNPAVVFVTRKNRQVCANPEKKWVREYINSLEK(Biotin)S-OH
modifications: disulfide 10-34, 11-50; also: TFA salt
